Broadly, the stoichiometry N is a count of units in the complex or per binding partner.

The data set concerns the molecule itself. The data set can be described thus: crystal structure.

B1: Helicobacter pylori high temperature requirement A protein (HpHtrA) (enzyme)
chain: GNIQIQSMPKVKERVSVPSKDDTIYSYHDSIKDSIKAVVNISTEKKIKNNFIGGGVFNDPFFQQFFGDLGGMIPKERMERALGSGVIISKDGYIVTNNHVIDGADKIKVTIPGSNKEYSATLVGTDSESDLAVIRITKDNLPTIKFSDSNDISVGDLVFAIGNPFGVGESVTQGIVSALNKSGIGINSYENFIQTDASINPGNSGGALIDSRGGLVGINTAIISKTGGNHGIGFAIPSNMVKDTVTQLIKTGKIERGYLGVGLQDLSGDLQNSYDNKEGAVVISVEKDSPAKKAGILVWDLITEVNGKKVKNTNELRNLIGSMLPNQRVTLKVIRDKKERAFTLTLAERKNPNKKETISAQNGAQGQLNGLQVEDLTQETKRSMRLSDDVQGVLVSQVNENSPAEQAGFRQGNIITKIEEVEVKSVADFNHALEKYKGKPKRFLVLDLNQGYRIILVK
For the protein B1, the “stoichiometry N” value came out at 6.

Source of the values: article PMC4724879 (Chemical science (Royal Society of Chemistry : 2010), 2014).
